Results as given in PMC9873573, “Cryo-EM structure of the respiratory I + III2 supercomplex from Arabidopsis thaliana at 2 Å resolution” (Nature Plants, 2022).

T1: complex I, FMN / NADH site (51 kDa subunit), in the I + III2 supercomplex (Arabidopsis thaliana, UniProt Q9FNN5)
T1 construct: gene At5g08530; native supercomplex; tested as whole I + III2 assembly of 68 subunits
T1 sequence (Q9FNN5 31-486): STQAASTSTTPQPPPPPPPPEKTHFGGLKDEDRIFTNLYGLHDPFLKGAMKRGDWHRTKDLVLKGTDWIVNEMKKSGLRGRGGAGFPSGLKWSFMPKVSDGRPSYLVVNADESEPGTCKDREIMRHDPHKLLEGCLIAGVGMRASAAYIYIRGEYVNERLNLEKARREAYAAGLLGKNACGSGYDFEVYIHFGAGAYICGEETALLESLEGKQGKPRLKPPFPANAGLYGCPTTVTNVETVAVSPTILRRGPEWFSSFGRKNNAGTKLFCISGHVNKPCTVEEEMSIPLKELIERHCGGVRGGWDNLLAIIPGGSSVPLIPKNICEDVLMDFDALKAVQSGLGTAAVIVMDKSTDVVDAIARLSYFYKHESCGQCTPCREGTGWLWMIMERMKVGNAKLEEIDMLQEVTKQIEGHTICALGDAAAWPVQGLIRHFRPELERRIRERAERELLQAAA

T2: complex I core subunit ND5 (Arabidopsis thaliana (endogenous in …, UniProt P29388 1-669))
T2 sequence (looked up): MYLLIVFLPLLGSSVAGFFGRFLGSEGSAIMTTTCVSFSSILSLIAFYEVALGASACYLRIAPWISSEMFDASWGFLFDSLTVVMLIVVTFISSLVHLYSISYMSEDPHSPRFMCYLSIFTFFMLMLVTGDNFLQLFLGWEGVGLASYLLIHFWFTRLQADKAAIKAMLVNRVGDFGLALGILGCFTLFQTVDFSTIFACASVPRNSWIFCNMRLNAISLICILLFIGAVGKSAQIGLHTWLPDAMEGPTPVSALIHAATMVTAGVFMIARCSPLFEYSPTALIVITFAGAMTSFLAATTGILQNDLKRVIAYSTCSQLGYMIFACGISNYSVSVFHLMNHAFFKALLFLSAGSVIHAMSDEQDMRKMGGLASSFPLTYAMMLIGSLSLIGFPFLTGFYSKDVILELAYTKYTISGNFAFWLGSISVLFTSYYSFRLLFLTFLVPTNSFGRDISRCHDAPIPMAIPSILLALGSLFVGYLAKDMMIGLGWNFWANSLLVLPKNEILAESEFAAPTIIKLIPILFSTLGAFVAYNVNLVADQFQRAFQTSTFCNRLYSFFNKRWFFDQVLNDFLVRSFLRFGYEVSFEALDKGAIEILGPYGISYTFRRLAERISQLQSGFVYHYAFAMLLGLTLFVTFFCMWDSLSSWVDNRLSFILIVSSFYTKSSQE

T3: mitochondrial processing peptidase subunit MPP-α-1 of complex III (Arabidopsis thaliana (endogenous in …, UniProt Q9ZU25 60-503))
T3 construct: MPP-α, isoform 1 (the dominant isoform, fitted to the map), subunit of Arabidopsis thaliana complex III
T3 sequence (looked up): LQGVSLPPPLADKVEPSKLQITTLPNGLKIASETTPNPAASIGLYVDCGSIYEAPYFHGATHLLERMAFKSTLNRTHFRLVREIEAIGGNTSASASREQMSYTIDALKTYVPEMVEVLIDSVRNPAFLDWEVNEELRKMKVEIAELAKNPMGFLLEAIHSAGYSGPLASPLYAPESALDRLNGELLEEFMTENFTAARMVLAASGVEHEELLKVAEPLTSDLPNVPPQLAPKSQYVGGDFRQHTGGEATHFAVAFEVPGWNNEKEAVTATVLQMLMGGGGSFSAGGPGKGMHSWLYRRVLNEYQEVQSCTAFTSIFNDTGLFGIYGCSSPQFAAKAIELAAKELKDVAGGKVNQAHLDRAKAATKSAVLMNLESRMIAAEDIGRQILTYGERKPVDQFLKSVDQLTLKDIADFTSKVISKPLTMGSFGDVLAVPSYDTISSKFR

T4: mitochondrial processing peptidase subunit MPP-β of complex III (Arabidopsis thaliana (endogenous in …, UniProt Q42290 79-531))
T4 construct: MPP-β, subunit of Arabidopsis thaliana complex III
T4 sequence (looked up): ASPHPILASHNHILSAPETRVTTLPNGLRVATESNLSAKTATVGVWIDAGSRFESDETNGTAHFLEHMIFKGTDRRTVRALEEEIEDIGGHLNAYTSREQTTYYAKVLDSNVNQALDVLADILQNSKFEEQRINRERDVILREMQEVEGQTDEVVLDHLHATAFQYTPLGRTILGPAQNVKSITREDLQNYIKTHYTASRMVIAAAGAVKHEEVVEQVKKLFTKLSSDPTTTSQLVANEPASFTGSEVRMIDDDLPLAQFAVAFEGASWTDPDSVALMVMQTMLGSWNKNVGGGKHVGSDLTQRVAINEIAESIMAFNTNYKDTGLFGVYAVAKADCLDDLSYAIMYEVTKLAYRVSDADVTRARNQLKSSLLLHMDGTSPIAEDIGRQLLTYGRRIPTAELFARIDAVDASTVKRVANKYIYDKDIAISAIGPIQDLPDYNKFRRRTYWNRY

B1: complex III subunit QCR8-1 (natural protein, UniProt Q9SG91 1-72, looked up)
chain: MGKQPVKLKAVVYALSPFQQKIMTGLWKDLPEKIHHKVSENWISATLLVTPVVGTYWYAQYFKEQEKLEHRF
notes: QCR8, isoform 1 (the dominant isoform, fitted to the map), accessory subunit of Arabidopsis thaliana complex III
B2: complex I subunit B14.7 (natural protein, UniProt O48528 1-159, looked up)
chain: MDPAEMRYLEEEDGPLMKTIKGSITGFGAGTIYGTILATWKDVPRVERNVALPGLIRTLKMMGTHGLTFAAIGGVYIGVEQLVQNFRSKRDFYNGAIGGFVAGASVLGYRARSIPTAIAAGATLAVTSALIDSGGQTTRVDNGREYYPYTVEKRAEADS
notes: subunit B14.7 of Arabidopsis thaliana mitochondrial complex I (membrane arm); absent from the earlier structures of free plant complex I; also called B14.7 kDa subunit
B3: complex I subunit B22 (natural protein, UniProt Q945M1 1-117, looked up)
chain: MSGVSTAAYFARRAAQKERVRILYRRALKDTLNWAVHRHIFYRDASDLREKFNVNQDVEDVDRIDKLIAHGEAEYNKWRHPDPYIVPWAPGGSKFCRNPTPPAGIEIVYNYGLEDNP
notes: accessory subunit B22 of Arabidopsis thaliana mitochondrial complex I (membrane arm)
B4: complex III subunit QCR6-1 (natural protein, UniProt Q0WWE3 1-69, looked up)
chain: MADDEVVDPKKYLEESCKPKCVKPLLEYQACVKRIQGDDSGHKHCTGQYFDYWQCIDKCVAPKLFAKLK
notes: QCR6, isoform 1 (the dominant isoform, fitted to the map), accessory subunit of Arabidopsis thaliana complex III

Assays:
[1] = molecular target: T1, complex I, FMN / NADH site (51 kDa subunit), in the I + III2 supercomplex; assay: cryo-EM structure, […] Å; assay type: binding; conditions: co-purified
complex I subunit B14.7 = molecular target: B2; assay: cryo-EM structure; native I + III2 supercomplex isolated from digitonin-solubilised Arabidopsis mitochondria (sucrose gradient, Superose 6 in GDN); 30 mM Tris-HCl pH 7.4, 60 mM NaCl, 0.02% GDN; 2.36 Å for the whole supercomplex, 2.03 Å after multibody refinement, 1.9 Å after density modification; conditions: both partners purified
[2] = molecular target: T2, complex I core subunit ND5; assay: as above; conditions: both partners purified
[3] = molecular target: T3, mitochondrial processing peptidase …; assay: as above; conditions: both partners purified
[4] = molecular target: T4, mitochondrial processing peptidase …; assay: as above; conditions: both partners purified

Molecule: Cc1cc2nc3c(=O)[nH]c(=O)nc-3n(C[C@H](O)[C@H](O)[C@H](O)COP(=O)(O)O)c2cc1C [FMN]
cryo-EM structure, 2 Å [1]: Complex I: FMN (Flavin mononucleotide), N1a, N1b, N2, N3

Molecule: B1
binding result (complex I subunit B14.7): binds

Molecule: B2
binding result [2]: binds

Molecule: B3
binding result [3]: binds | binding result [4]: binds

Molecule: B4
binding result (complex I subunit B14.7): binds
